Settings: Carica papaya, Thermal, DSC, glycine 0.05M, reversible: No, whole UniProt chain shown

B1: Papain wild type, P00784 (protein)
chain: MAMIPSISKLLFVAICLFVYMGLSFGDFSIVGYSQNDLTSTERLIQLFESWMLKHNKIYKNIDEKIYRFEIFKDNLKYIDETNKKNNSYWLGLNVFADMSNDEFKEKYTGSIAGNYTTTELSYEEVLNDGDVNIPEYVDWRQKGAVTPVKNQGSCGSCWAFSAVVTIEGIIKIRTGNLNEYSEQELLDCDRRSYGCNGGYPWSALQLVAQYGIHYRNTYPYEGVQRYCRSREKGPYAAKTDGVRQVQPYNEGALLYSIANQPVSVVLEAAGKDFQLYRGGIFVGPCGNKVDHAVAAVGYGPNYILIKNSWGTGWGENGYIRIKRGTGNSYGVCGLYTSSFYPVKN
- Tm (pH 2.9): 60.3 °C
- unfolding enthalpy (calorimetric) (pH 2.9): 133 kcal/mol
- Tm (pH 3.8): 78.5 °C
- unfolding enthalpy (calorimetric) (pH 3.8): 198 kcal/mol
- Tm (pH 4.1): 81.8 °C
- unfolding enthalpy (calorimetric) (pH 4.1): 211 kcal/mol
